For three molecules, binding result, EC50 and Kd results are on record in patent publication US20260250420A1 (SICHUAN KELUN BIOTECH BIOPHARMACEUTICAL, published 2026).

In assay [1] the target is T1, rat PTK7 protein (extracellular sequence of rat PTK7 with C-terminal 6×His tag) (rat, UniProt A0A8I6ALM9 40-713).
T1 construct: extracellular domain; Expressed transiently in HEK293 cells
The assay can be described thus: ELISA, coated rat PTK7 protein. Background: An ELISA detects its analyte on a solid surface through an enzyme-linked reagent.

The target in assay [2] is T2, human PTK7 on cells (tumor cells endogenously expressing PTK7); CHO-hPTK7, CHO-S-hPTK7 and 293T-hPTK7 … (human, UniProt Q13308 31-1070).
T2 construct: whole, on cells; The cell line of each value is named under assay; also called H1299; H358
T2 sequence (looked up): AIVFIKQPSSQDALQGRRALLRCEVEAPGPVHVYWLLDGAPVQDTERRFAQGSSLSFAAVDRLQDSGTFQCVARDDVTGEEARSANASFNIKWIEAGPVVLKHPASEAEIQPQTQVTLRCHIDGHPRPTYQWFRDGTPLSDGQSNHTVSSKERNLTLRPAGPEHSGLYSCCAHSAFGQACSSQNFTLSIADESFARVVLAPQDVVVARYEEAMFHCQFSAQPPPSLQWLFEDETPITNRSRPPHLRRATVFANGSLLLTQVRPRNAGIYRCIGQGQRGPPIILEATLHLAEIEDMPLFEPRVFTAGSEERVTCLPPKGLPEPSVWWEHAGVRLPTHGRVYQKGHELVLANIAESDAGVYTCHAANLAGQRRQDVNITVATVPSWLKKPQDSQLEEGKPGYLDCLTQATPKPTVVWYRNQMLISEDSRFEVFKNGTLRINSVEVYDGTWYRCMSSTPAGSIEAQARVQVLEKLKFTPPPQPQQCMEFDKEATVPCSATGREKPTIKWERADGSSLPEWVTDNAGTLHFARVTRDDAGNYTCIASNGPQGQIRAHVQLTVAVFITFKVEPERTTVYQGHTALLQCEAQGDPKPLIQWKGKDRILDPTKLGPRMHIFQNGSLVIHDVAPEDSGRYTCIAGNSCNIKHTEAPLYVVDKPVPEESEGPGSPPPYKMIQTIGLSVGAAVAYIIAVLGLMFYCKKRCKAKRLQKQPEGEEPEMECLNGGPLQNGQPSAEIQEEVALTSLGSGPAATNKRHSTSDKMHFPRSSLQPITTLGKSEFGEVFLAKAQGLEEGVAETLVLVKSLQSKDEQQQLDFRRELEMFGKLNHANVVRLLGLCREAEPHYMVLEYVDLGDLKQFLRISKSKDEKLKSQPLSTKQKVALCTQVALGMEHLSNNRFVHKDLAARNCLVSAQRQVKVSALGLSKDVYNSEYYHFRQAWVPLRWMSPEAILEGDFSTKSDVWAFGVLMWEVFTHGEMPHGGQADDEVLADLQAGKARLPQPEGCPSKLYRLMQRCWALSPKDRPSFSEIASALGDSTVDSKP
The assay can be described thus: flow cytometry on CHO-hPTK7 overexpression cells. The text has this: (§1) A flow cytometer (Beckman, Cytoflex) was used for detecting the affinity of the anti-human PTK7 chimeric and humanized antibodies with human non-small cell lung cancer cells H1299, human lung adenocarcinoma cells H1975, human breast cancer cells T47D, human ovarian cancer cells OVCAR-3 (all purchased from NANJING COBIOER BIOSCIENCES CO., LTD) and CHO-hPTK7 overexpression cells.
(§2) The adherent cells were digested by using a pancreatin (Gibco) solution; a proper amount of cells were counted and taken, washed twice by using 1×PBS, and re-suspended in a 1% BSA solution; and then the cells were transferred into a 96-well deep plate at a density of 50 μl/well; a candidate antibody was diluted by using 1% BSA, then 50 μl of diluted antibody was added into the deep plate containing the cells, and incubated for 40 min at 4° C.; the cells were washed twice by using PBS, then 50 μl of diluted secondary antibody was added into each well, uniformly mixed, and incubated for 30 min at 4° C.; and the cells were washed twice by using PBS, then re-suspended in 400 μl of PBS, and subjected to examination by flow cytometer.
Background: In flow cytometry, cells or beads pass a laser one at a time.

Assay [3] concerns the target T3, human Fc receptor protein CD16a (human, UniProt P08637 17-208, biotinylated).
T3 construct: Biotinylated protein captured on SA sensors
The assay can be described thus: BLI (ForteBio), biotinylated receptor on SA sensor, antibody from 5,000 nM, 1:1 global fit. From the text:
(§3) The dynamic affinity of the antibodies 101A6HZ, 101A6HZm and Hu24 with human Fc receptor proteins CD16a, CD32a, CD32b, CD64 and FcRn was detected through ForteBio (Pall life sciences).
On the technique in general: In BLI a coated tip is dipped into the sample, and binding shifts an interference pattern.

The target in assay [4] is T4, human Fc receptor protein CD32a (human, UniProt P12318 34-217, biotinylated).
T4 construct: Biotinylated protein captured on SA sensors
T4 sequence (looked up): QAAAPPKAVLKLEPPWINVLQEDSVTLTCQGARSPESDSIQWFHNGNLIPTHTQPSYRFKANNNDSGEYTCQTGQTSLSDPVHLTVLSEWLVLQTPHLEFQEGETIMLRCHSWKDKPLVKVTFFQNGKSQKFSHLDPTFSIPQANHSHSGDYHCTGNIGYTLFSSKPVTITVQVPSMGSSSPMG
The assay is described as above.
Source text: as §3

Assay [5] deals with T5, human Fc receptor protein CD32b (human, UniProt P31994 43-217, biotinylated).
T5 construct: Biotinylated protein captured on SA sensors
T5 sequence (looked up): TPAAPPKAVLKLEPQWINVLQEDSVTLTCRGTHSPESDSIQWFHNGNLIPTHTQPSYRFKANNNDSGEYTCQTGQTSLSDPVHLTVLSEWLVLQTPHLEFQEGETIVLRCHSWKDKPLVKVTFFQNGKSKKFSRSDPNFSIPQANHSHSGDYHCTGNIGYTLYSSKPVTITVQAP
The description is as above.
Source text: as §3

Assay [6] addresses T6, human Fc receptor protein CD64 (human, UniProt P12314 16-292, limits assumed, biotinylated).
T6 construct: Biotinylated protein captured on SA sensors
Described as above.
Source text: as §3

Assay [7] addresses T2, human PTK7 on cells (tumor cells …). The assay can be described thus: flow cytometry on OVCAR-3 cells.
Source text: as §1, §2

The target is the same in assay [8]. Briefly: flow cytometry on H1299 cells endogenously expressing PTK7.

T6 sequence (P12314 16-292 limits assumed): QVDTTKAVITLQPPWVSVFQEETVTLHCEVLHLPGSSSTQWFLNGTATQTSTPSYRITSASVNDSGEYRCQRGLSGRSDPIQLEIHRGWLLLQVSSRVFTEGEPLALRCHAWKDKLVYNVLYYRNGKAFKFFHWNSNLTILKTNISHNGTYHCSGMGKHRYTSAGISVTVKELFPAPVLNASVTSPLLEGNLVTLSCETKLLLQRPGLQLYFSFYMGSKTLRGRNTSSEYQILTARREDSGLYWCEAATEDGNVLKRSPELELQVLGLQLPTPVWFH
T3 sequence (P08637 17-208 limits assumed): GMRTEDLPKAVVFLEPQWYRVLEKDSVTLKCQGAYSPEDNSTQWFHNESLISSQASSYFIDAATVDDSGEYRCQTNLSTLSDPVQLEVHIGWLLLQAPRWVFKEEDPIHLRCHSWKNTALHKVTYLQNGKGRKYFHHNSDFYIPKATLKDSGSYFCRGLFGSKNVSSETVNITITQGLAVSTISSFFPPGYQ

B1: 101A6HZ (anti-human PTK7 humanized antibody) (antibody, human IgG1, kappa)
heavy: not shown
light: DIVMTQSPDSLAVSLGERATINCKASQDVGSAVIWYQQKPGQSPKLLIYWASTRHTGVPDRFSGSGSGTDFTLTISSLQAEDVAVYYCQQYSSYPLTFGQGTKLEIKRTVAAPSVFIFPPSDEQLKSGTASVVCLLNNFYPREAKVQWKVDNALQSGNSQESVTEQDSKDSTYSLSSTLTLSKADYEKHKVYACEVTHQGLSSPVTKSFNRGEC
In general, EC50 refers to the concentration at which the effect is half-maximal. A word on the Kd: it is a measure of binding affinity in units of concentration. High values mean a looser complex, low ones a tighter complex. In the case of B1, the binding result in assay [1] is recorded as “no binding”. In assay [2], this molecule came in with an EC50 of 0.176 µg/mL. Moreover, the dissociation constant (Kd) in assay [3] worked out at 1010 nM; in assay [4], 2270 nM; in assay [5], 1780 nM; in assay [6] it was 0.508 nM.

B2: 64A10HZ (anti-human PTK7 humanized antibody) (antibody, human IgG1, kappa, V domains shown)
VH: QVQLQESGPGLVKPSETLSLTCTVSGFSLTSYGVYWVRQPPGKGPEWLGVIWTSGNTNYNPSLKSRLTISKDNSKNQVSLKLSSVTAADTAVYYCVKHDGGNYVGVMNYWGQGTLVTVSS
VL: EIVMTQSPDFQSVTPKEKVTITCRASQSISDYLHWYQQKPDQSPKLLIKYASQSISGVPSRFSGSGSGSDFTLTINSLEAEDAATYYCQNGHSFPPTFGQGTKLEIKR
notes: Human IgG1 heavy chain constant region and human Kappa light chain constant region; expressed in CHO-S cells
As for B2, in assay [1], the binding result is “no binding”. The EC50 in assay [7] was determined as 0.0613 µg/mL.

B3: Hu24 (PTK7 control antibody, taken from Hu24 in the Patent CN201580030255) (antibody)
chain 1: QVQLVQSGPEVKKPGASVKVSCKASGYTFTDYAVHWVRQAPGKRLEWIGVISTYNDYTYNNQDFKGRVTMTRDTSASTAYMELSRLRSEDTAVYYCARGNSYFYALDYWGQGTSVTVSS
chain 2: EIVLTQSPATLSLSPGERATLSCRASESVDSYGKSFMHWYQQKPGQAPRLLIYRASNLESGIPARFSGSGSGTDFTLTISSLEPEDFAVYYCQQSNEDPWTFGGGTKLEIK
Regarding B3, the EC50 in assay [7] turned out to be 0.123 µg/mL; in assay [2] it was 0.308 µg/mL; in assay [8] it was 0.293 µg/mL. Besides, the Kd in assay [3] is 1190 nM; in assay [4], 1730 nM; in assay [5], 1760 nM; in assay [6], 0.465 nM.
